Where a chain is given by its changes, count along the chain named. Like-named read-outs stand apart in the source and are kept apart here. Values belong to the binder of their own block, whether it stands above or below them.
What was measured:
human Claudin18.2 [1] = molecular target: T1, human Claudin18.2 (human); assay: FACS, Claudin18.2-HEK293 cells
T1 construct: also called CLDN18.2
Procedure: (§1) The binding of chimeric antibodies to Claudin18.2 expressed on HEK293 cells was determine by FACS analysis. Briefly, HEK293 cells expressing human Claudin18.2 as prepared in the foregoing Example were harvested and incubated with anti-Claudin18.2 mAbs at 4° C. for 40 min, followed by fluorophore (iFluor 647)-labeled goat […] IgG (H+L) secondary antibodies at 4° C. for 0.5 hour. The samples were then analyzed by flow cytometry.
After initial screening of cell binding with transfected supernatants, the binding pattern of chimeric and up to 3 humanized antibodies on Claudin18.2 expressed on HEK293 cells were plotted with antibody in 3× serial dilutions, starting concentration of 45 μg/ml, following the protocol described in Example 3.

human Claudin18.2 [2] = molecular target: T1, human Claudin18.2; assay: FACS, Claudin18.2-HEK293 cells; remark: listed apart in the source
Procedure: as §1

human Claudin18.2 [3] = molecular target: T1, human Claudin18.2; assay: cell-based or functional assay
human Claudin18.2 [4] = molecular target: T1, human Claudin18.2; assay: cell-based or functional assay; remark: listed apart in the source

EC50 (human Claudin18.2 [1]): 0.555 µg/mL
Span (human Claudin18.2 [1]): 64500
B1: humanized 410H6H3-VH1.2 + VL1.1 (antibody, human IgG1, kappa, V domains shown)
VH: EVQLVESGGGLVQPGGSRRLSCAASGFTFSSSGMHWVRQAPGKGLEWVSYISSGSNTIYYADTLKGRFTISRDNAKNTLFLQMNSLRAEDTAVYYCARIYYGNSFVYWGQGTLVTVSS
VL: DIVMTQSPDSLAVSLGERATMSCKSSQSLLNSGNQKNYLTWYQQKPGQPPKMLIYWASTRESGVPDRFSGSGSGTDFTLTISSLQAEDVAVYYCQNNYYYPLTFGQGTKLEIKR
notes: humanized, human IgG1/kappa constant regions

EC50 (human Claudin18.2 [1]): 0.571 µg/mL
Span (human Claudin18.2 [1]): 71300
B2: humanized 412B6E4-VH1.1 + VL1.1 (antibody, human IgG1, kappa, V domains shown)
VH: EVQLVESGGGLVQPGGSLRLSCAASGFTFSSFGVHWVRQAPGKGLEWVAYISSGSSTIYYAHSVKGRFTISRDNAKNSLFLQMNSLRAEDTAVYYCARFYYGNSFAYWGQGTLVTVSS
VL: B1 VL with N97A, Y99T
notes: as for B1

EC50 (human Claudin18.2 [1]): 0.373 µg/mL
Span (human Claudin18.2 [1]): 65900
B3: humanized 412B6E4-VH1 + VL1.1 (antibody, human IgG1, kappa, V domains shown)
VH: B2 VH with A49S, F80Y
VL: B1 VL with N97A, Y99T
notes: as for B1

EC50 (human Claudin18.2 [1]): 0.512 µg/mL
Span (human Claudin18.2 [1]): 70300
B4: humanized 412B6E4-VH1.2 + VL1.1 (antibody, human IgG1, kappa, V domains shown)
VH: B2 VH with L18R, A49S, S78T
VL: B1 VL with N97A, Y99T
notes: as for B1

EC50 (human Claudin18.2 [1]): 0.33 µg/mL
Span (human Claudin18.2 [1]): 72100
B5: humanized 410H6H3-VH1 + VL1 (antibody, human IgG1, kappa, V domains shown)
VH: B1 VH with R18L, T78S, F80Y
VL: B1 VL with M21I, S22N, M52L
notes: as for B1

EC50 (human Claudin18.2 [1]): 0.372 µg/mL
Span (human Claudin18.2 [1]): 73000
B6: humanized 410H6H3-VH1.2 + VL1 (antibody, human IgG1, kappa, V domains shown)
VH: B1 VH
VL: B1 VL with M21I, S22N, M52L
notes: as for B1

EC50 (human Claudin18.2 [2]): 1.36 nM
B7: chimeric 201F4H6 (antibody, human IgG1, kappa, V domains shown)
VH: QVQLKESGPGLVAPSQSLSITCTVSGFSLTSYGVSWVRQPPGKGLECLGVIWAGGNTNYNSALMSRLSISKDKSKSQVFLKMNSLQTDDTAMYYCARVYYGNAMDYWGQGTSVTVSS
VL: DIVMTQSPSSLTVTAGEKVTMSCKSSQSLLNSGNQKSYLTWYQQRPGQPPKLLIYWASTRESGVPDRFTGSGSGTDFTLTISSVQAEDLAVYFCQNVYFFPFTFGSGTKLETKR
notes: chimeric, human IgG1/kappa constant regions

EC50 (human Claudin18.2 [1]): 0.794 µg/mL
Span (human Claudin18.2 [1]): 4300
B8: humanized 370E2B12C3-VH3 + VL2 (antibody, human IgG1, kappa, V domains shown)
VH: QVQLVESGGGVVQPGRSLRLSCAASGFSLTTYGVHWVRQAPGKGLEWVAVIWAGGSTNYNSALMSRFTISRDNSKNTLYLQMNSLRAEDTAVYYCARAAYYGNGLDYWGQGTMVTVSS
VL: DIVMTQSPLSLPVTPGEPASISCKSSQTLLNSGNQKNYLTWYLQKPGQSPQLLIYWASTGESGVPDRFSGSGSGTDFTLKISRVEAEDVGVYYCQNAYFYPFTFGGGTKVEIKR
notes: as for B1

EC50 (human Claudin18.2 [1]): 1.17 µg/mL
Span (human Claudin18.2 [1]): 5520
B9: humanized 370E2B12C3-VH3 + VL3 (antibody, human IgG1, kappa, V domains shown)
VH: B8 VH
VL: B8 VL with I2V, P15L, E17Q, Y42F, L43Q, K45R, Q51R, L52R
notes: as for B1

ADCC % Relative activity (human Claudin18.2 [3]): 83.6%
ADCC EC50 (human Claudin18.2 [3]): 0.0291 µg/mL
CDC % Relative activity (human Claudin18.2 [4]): 793%
CDC EC50 (human Claudin18.2 [4]): 0.34 µg/mL
EC50 (human Claudin18.2 [2]): 0.796 nM
B10: chimeric 194D3B2 (antibody, human IgG1, kappa, V domains shown)
VH: QAYLQQSGAELVRSGASVKMSCKASGYPFTSYNMHWVKQTPGQGLEWVGYIYPGNGGTNYNQKFRDKATLTADTSSSTAYMQISRLTSDDSAVYFCLTGRGFAYWGQGTLVTVSA
VL: DIVMTQSPSSLIVTPGERVTMSCKSSQSLLNSGNQKNYLTWYQQKPGQPPKLLIYRASTRESGVPDRFTGSGSGTDFTLTISSVQAEDLAVYYCQNDYSYPLTFGIGTKLELKR
notes: as for B7

EC50 (human Claudin18.2 [2]): 2.6 nM
B11: chimeric 234B9D4 (antibody, human IgG1, kappa, V domains shown)
VH: EIQLQQSGPDLMKPGSSVKISCTASGYSFTSYYIHWVKQSHGKTLEWIGYIDPFNGGTRYNQKFEGKAALTVDKSSTTAYMHLTSLTSDDSAVYYCASLRFFTYWGQGTLVTVSA
VL: B10 VL with I12T, P15A, R18K, S22T, K36E, Y55S, E61Q, I106A
notes: as for B7

EC50 (human Claudin18.2 [2]): 1.3 nM
B12: chimeric 182D10F1 (antibody, human IgG1, kappa, V domains shown)
VH: B10 VH with P28T, T30S, V48I, R65K, D66G, R85S, D89E, A103T
VL: B10 VL with I12T, P15A, R18K, S22N, L30F, I106V
notes: as for B7

ADCC % Relative activity (human Claudin18.2 [3]): 85.9%
ADCC EC50 (human Claudin18.2 [3]): 0.0357 µg/mL
CDC % Relative activity (human Claudin18.2 [4]): 937%
CDC EC50 (human Claudin18.2 [4]): 0.288 µg/mL
EC50 (human Claudin18.2 [2]): 0.798 nM
B13: chimeric 252F1B10 (antibody, human IgG1, kappa, V domains shown)
VH: QAYLQQSGAELVRSGASVKMSCKASGYTFTSHNMHWVKQTPGQGLEWIGYIYPGNGGTNYNQKFKGKATLTADTSSSTAYMQINSLTSEDSAVYFCTRDYYGNSFAYWGQGTLVTVSA
VL: B10 VL with I12T, V13E, T14K, P15A, T20S, L30F, R56W, S99R, L102F, I106A
notes: as for B7

ADCC % Relative activity (human Claudin18.2 [3]): 66.4%
ADCC EC50 (human Claudin18.2 [3]): 0.0367 µg/mL
CDC % Relative activity (human Claudin18.2 [4]): 1040%
CDC EC50 (human Claudin18.2 [4]): 0.261 µg/mL
EC50 (human Claudin18.2 [2]): 0.551 nM
B14: chimeric 203A6C9 (antibody, human IgG1, kappa, V domains shown)
VH: QVQLKQSGPGLVQPSQSLSITCTVSGFSLTRYGVHWVRQSPGKGLEWLGVIWSGGNTDYNAAFISRLNIRKDNSKSQVFFKMNSLKPNDTAIYYCARAAYFGNSFDYWGQGTTLTVSS
VL: B10 VL with I12P, P15A, R18K, R56W, E61D, D97N, S99I, I106A
notes: as for B7

ADCC % Relative activity (human Claudin18.2 [3]): 68.2%
ADCC EC50 (human Claudin18.2 [3]): 0.0454 µg/mL
CDC % Relative activity (human Claudin18.2 [4]): 642%
CDC EC50 (human Claudin18.2 [4]): 0.358 µg/mL
EC50 (human Claudin18.2 [2]): 1.17 nM
B15: chimeric 257B1G9 (antibody, human IgG1, kappa, V domains shown)
VH: B13 VH with N84S
VL: B10 VL with I12T, V13E, T14R, P15A, T20S, L30F, R56W, S99R, L102F, I106A
notes: as for B7

ADCC % Relative activity (human Claudin18.2 [3]): 131%
ADCC EC50 (human Claudin18.2 [3]): 0.0276 µg/mL
CDC % Relative activity (human Claudin18.2 [4]): 1320%
CDC EC50 (human Claudin18.2 [4]): 0.205 µg/mL
EC50 (human Claudin18.2 [2]): 0.61 nM
B16: chimeric 222B6G5 (antibody, human IgG1, kappa, V domains shown)
VH: QTYLQQSGAELVRSGASVKMSCKASGYTFTSYNIHWVKQTPGQGLEWIGYISPGNGGTYYNLKFKDKATLTTATSSSTAYMQISSLTSEDSAVYFCATGRGFAYWGQGTLVTVSA
VL: B10 VL with I12T, R18K, L30F, T40I, E61D, S83N, I106A
notes: as for B7

ADCC % Relative activity (human Claudin18.2 [3]): 55.8%
ADCC EC50 (human Claudin18.2 [3]): 0.0556 µg/mL
CDC % Relative activity (human Claudin18.2 [4]): 760%
CDC EC50 (human Claudin18.2 [4]): 0.302 µg/mL
EC50 (human Claudin18.2 [2]): 0.742 nM
B17: chimeric 257G7B9 (antibody, human IgG1, kappa, V domains shown)
VH: B13 VH with M34L, G57N, N84S
VL: DIVMTQSPSSLTEKAGERVSMSCKSSQSLFNSGNQKNYLTWYQQKPGQPPKLLIYWASTRESGVPDRFTGSGSGTDFTLTISSVQAEDLAVYYCQNNYWFPFTFGAGTKLELKR
notes: as for B7

ADCC % Relative activity (human Claudin18.2 [3]): 109%
ADCC EC50 (human Claudin18.2 [3]): 0.0281 µg/mL
CDC % Relative activity (human Claudin18.2 [4]): 875%
CDC EC50 (human Claudin18.2 [4]): 0.309 µg/mL
EC50 (human Claudin18.2 [2]): 1.02 nM
B18: chimeric 250F4G4 (antibody, human IgG1, kappa, V domains shown)
VH: B13 VH with G57R, N84S
VL: B17 VL with A15V, N97D, F100Y
notes: as for B7

EC50 (human Claudin18.2 [2]): 1.53 nM
B19: chimeric 241H10A1 (antibody, human IgG1, kappa, V domains shown)
VH: QVQLQQSGAELVKPGASVKLSCKASGYTFTSFGINWLRQRPEQGLEWIGWIFPGDGNSKYNENFKGKATLTTDKSSSTAYMQVTRLTSEDSAVYFCARFYYGNSFANWGQGTLVTVSA
VL: B10 VL with I12T, P15A, R18K, R56W, S58A, S99F, L102F, I106G
notes: as for B7

ADCC % Relative activity (human Claudin18.2 [3]): 104%
ADCC EC50 (human Claudin18.2 [3]): 0.024 µg/mL
CDC % Relative activity (human Claudin18.2 [4]): 684%
CDC EC50 (human Claudin18.2 [4]): 0.336 µg/mL
EC50 (human Claudin18.2 [2]): 1.05 nM
B20: chimeric 260G9E8 (antibody, human IgG1, kappa, V domains shown)
VH: B13 VH with Y3D, T30A, N59K, K65T, N84T, T97A
VL: B17 VL with R18K, S22R, F30L, E87D, N97D, W99M
notes: as for B7
